Data published in US20190016816A1 (APTEVO RESEARCH AND DEVELOPMENT, published 2019).
Blank lines part the entries; values can stand above or below the binder they belong to.

What was measured:
human CD137 on cells = molecular target: T1, human CD137 on cells (human, UniProt Q07011 24-255); assay: flow cytometry, CHO-K1 cells expressing human CD137, PE anti-human IgG Fc secondary, MFI (median)
T1 construct: also called 4-1BB; TNFRSF9 (CHO-K1/human CD137 cells)
Method: Binding studies on CHO-K1 cells lines expressing CD137 were performed by standard flow cytometry-based staining procedures. CHO-K1 cells (generated by Alligator) were transfected with human or cynomolgus macaque CD137. A typical experiment would label approximately 100,000 cells per well, in 96-well plates, with a range of 100 nM to 0.05 nM binding molecule in 50 μL of saline buffer with 2% BSA and 2 mM EDTA, for 30 min on ice, followed by washes and incubation with PE-labeled secondary antibody, goat anti-human IgG Fcγ ([…]), for 20 minutes on ice. Signal from bound molecules was detected using a LSR-II™ or a Symphony A3 flow cytometer (BD Biosciences) and analyzed by FlowJo flow cytometry analysis software. Median fluorescence intensity (MFI-median) of bound molecules on live cells was determined after exclusion of doublets cells. Nonlinear regression analysis to determine EC₅₀ values was performed in GraphPad Prism 6® graphing and statistics software.

FcγRI (CD64) = molecular target: T2, FcγRI (CD64) (UniProt P12314 16-374, limits assumed); assay: flow cytometry, CHO cells stably expressing CD64, fluorescent anti-human IgG secondary, MFI (mean)
T2 construct: whole, on cells
T2 sequence (P12314 16-374 limits assumed): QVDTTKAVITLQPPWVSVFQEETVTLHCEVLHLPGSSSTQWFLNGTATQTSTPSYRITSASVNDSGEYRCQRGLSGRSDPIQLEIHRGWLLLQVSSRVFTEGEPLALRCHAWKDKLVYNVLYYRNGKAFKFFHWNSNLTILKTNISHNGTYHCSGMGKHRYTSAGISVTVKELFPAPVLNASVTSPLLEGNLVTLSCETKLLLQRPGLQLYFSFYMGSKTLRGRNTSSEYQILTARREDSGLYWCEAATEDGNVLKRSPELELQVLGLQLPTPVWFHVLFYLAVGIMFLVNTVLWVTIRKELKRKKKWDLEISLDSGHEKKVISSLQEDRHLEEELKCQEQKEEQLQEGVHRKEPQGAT
Excerpt: (§1) ALG.APV-210 contains mutations introduced to prevent interaction with Fcγ receptors (FcγR) that could lead to FcγR-mediated T-cell activation or ADCC, ADCP, CDC etc. Binding of ALG.APV-210 was therefore tested on CHO cell transfectants stably expressing the following FcγR: FcγRI (CD64), FcγRIIa (CD32a His131), FcγRIIb (CD32b), FcγRIIIa (CD16a Val158 and CD16a Phe158), and FcγRIIIb (CD16b). Untransfected CHO cells were used as negative control. A control human IgG1 molecule was used as a positive control. Different concentrations of ALG.APV-210 or control IgG1 were incubated with the FcγR-expressing cell lines, washed, and labeled with a secondary anti-human IgG reagent. Binding of ALG.APV-210 and the control IgG1 was detected by flow cytometry.

human 5T4 on cells [1] = molecular target: T3, human 5T4 on cells (human, UniProt Q13641 32-420); assay: flow cytometry, MDA.MB-231 cells, PE goat anti-human Fc
T3 construct: also called TPBG; hu5T4
T3 sequence: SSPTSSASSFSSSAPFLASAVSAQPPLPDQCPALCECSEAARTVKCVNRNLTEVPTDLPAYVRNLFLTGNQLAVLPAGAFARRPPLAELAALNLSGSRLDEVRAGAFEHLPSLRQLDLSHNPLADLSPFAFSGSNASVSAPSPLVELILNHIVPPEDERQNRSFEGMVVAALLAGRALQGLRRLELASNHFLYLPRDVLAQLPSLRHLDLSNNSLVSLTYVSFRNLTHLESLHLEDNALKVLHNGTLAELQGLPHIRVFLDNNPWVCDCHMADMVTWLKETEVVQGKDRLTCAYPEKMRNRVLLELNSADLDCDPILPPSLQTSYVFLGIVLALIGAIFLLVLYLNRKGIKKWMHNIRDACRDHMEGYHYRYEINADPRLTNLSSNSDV
Method: A 3-fold titration of ALG.APV-210 construct (ranging from 100 nM to 0.14 nM) was incubated with the human 5T4-expressing cell lines for 40 minutes in FACS buffer at 4° C., washed 3 times, and detected with PE-labeled, goat-anti-human Fc secondary antibody (Jackson ImmunoResearch). Binding of ALG.APV-210 was detected by flow cytometry. All samples were run in duplicates. Nonlinear regression analysis to determine EC₅₀ values was performed in GraphPad Prism 6® graphing and statistics software.

FcγRIIIa (CD16a Val158) = molecular target: T4, FcγRIIIa (CD16a Val158) (UniProt P08637 17-254, limits assumed); assay: flow cytometry, CHO cells stably expressing CD16a Val158, fluorescent anti-human IgG secondary, MFI (mean)
T4 construct: whole, on cells; allotype Val158 as printed
T4 sequence (P08637 17-254 F176V limits assumed): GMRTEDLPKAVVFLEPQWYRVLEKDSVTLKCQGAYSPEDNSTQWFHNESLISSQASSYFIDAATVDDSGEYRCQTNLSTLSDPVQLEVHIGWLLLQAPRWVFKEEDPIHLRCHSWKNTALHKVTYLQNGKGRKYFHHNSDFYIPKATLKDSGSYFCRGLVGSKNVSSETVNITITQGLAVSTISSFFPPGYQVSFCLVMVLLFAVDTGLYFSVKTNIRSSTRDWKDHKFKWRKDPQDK
Excerpt: as §1

human 5T4 on cells [2] = molecular target: T3, human 5T4 on cells; assay: flow cytometry, B16-hu5T4 cells, streptavidin-PE, normalized MFI of 2 pooled experiments
Method: Prior to the FACS staining, all cell lines were characterized for their 5T4 expression levels using a receptor density kit (Quantum Simply Cellular, anti-human IgG, Bangs Laboratories, Inc). Adherent cell lines were cultured according to their supplier's instructions and were harvested from their cell culture flasks using Trypsin/EDTA, counted in R10 medium in a Burker chamber, and diluted in FACS buffer (PBS+0.5% BSA, 0.05% NaN₃) to a concentration of 4×10⁶ cells/mL. 50 μL (0.20×10⁶) of cell solution was added to a 96-well FACS staining plate (Falcon #351190). Cells were incubated for 20 min in 4° C. with 50 μL of the biotinylated ALG.APV-210 (2× final concentration). The antibodies were added in a serial dilution starting at 20 μg/mL titrating down in a 12 step ½ dilution down to 0.010 μg/mL. Following 2× washing with FACS buffer, cells were incubated for 30 min in 4° C. with 100 μL of a secondary antibody (streptavidin-PE, BD #554061, diluted 1/500). […] Cells were analysed for ALG.APV-210 binding using flow cytometry (FACSVerse) by gating on single cells. MFI values (secondary antibody only subtracted) from 1 out of 2 independent experiments, as well as normalized data and EC₅₀-values of pooled data from 2 experiments were determined and plotted using GraphPad Prism 7, non-linear regression log (agonist) vs. normalized response—variable slope.

T1 sequence (Q07011 24-255 limits assumed): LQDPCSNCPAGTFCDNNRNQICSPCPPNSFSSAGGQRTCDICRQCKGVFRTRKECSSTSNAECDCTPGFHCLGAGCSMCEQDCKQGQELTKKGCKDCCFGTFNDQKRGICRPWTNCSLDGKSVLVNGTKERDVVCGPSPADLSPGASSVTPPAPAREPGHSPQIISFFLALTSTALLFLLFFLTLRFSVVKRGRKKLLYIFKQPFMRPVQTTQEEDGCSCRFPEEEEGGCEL

EC50 (human CD137 on cells): 0.9 nM
B1: ALG.APV-187 (bispecific antibody)
chain: EVQLLESGGGLVQPGGSLRLSCAASGFTFSHGSMYWVRQAPGKGLEWVSSISSGSGSTYYADSVKGRFTISHDNSKNTLYLQMNSLRAEDTAVYYCARSSYYGSYYSIDYWGQGTLVTVSSGGGGSGGGGSGGGGSGGGGSDIQMTQSPSSLSASVGDRVTITCRASQSISSYLNWYQQKPGKAPKLLIYAASSLQSGVPSRFSGSGSGTDFTLTISSLQPEDFATYYCQQYYDNLPTFGQGTKLEIKSSEPKSSDKTHTCPPCPAPEAAGAPSVFLFPPKPKDTLMISRTPEVTCVVVDVSHEDPEVKFNWYVDGVEVHNAKTKPREEQYNSTYRVVSVLTVLHQDWLNGKEYKCAVSNKALPAPIEKTISKAKGQPREPQVYTLPPSRDELTKNQVSLTCLVKGFYPSDIAVEWESNGQPENNYKTTPPVLDSDGSFFLYSKLTVDKSRWQQGNVFSCSVMHEALHNHYTQKSLSLSPGSGGGGSGGGGSGGGGSPSEVQLLESGGGLVQPGGSLRLSCAASGFTFSSYAMSWVRQAPGKCLEWVSAISGSGGSTYYADSVKGRFTISRDNSKNTLYLQMNSLRAEDTAVYYCARYYGGYYSAWMDYWGQGTLVTVSSGGGGSGGGGSGGGGSGGGGSDIQMTQSPSSLSASVGDRVTITCRASQSISSFLNWYQQKPGKAPKLLIYAASSLQSGVPSRFSGSGSGTDFTLTISSLQPEDSATYYCQQTYGYLHTFGCGTKLEIKR
notes: Optimized ADAPTIR scFv-Fc-scFv homodimer with stabilizing disulfide in the 1210 scFv

binding result (FcγRI (CD64)): no binding (tested: 1000 nM)
EC50 (human 5T4 on cells [1]): 21 nM
binding result (FcγRIIIa (CD16a Val158)): no binding (tested: 1000 nM)
B2: ALG.APV-210 (bispecific antibody)
chain: EVQLLESGGGLVQPGGSLRLSCAASGFTFSHGSMYWVRQAPGKGLEWVSSISSGSGSTYYADSVKGRFTISHDNSKNTLYLQMNSLRAEDTAVYYCARSSYYGSYYSIDYWGQGTLVTVSSGGGGSGGGGSGGGGSGGGGSDIQMTQSPSSLSASVGDRVTITCRASQSISSYLNWYQQKPGKAPKLLIYAASSLQSGVPSRFSGSGSGTDFTLTISSLQPEDFATYYCQQYYDNLPTFGQGTKLEIKEPKSSDKTHTCPPCPAPEAAGAPSVFLFPPKPKDTLMISRTPEVTCVVVDVSHEDPEVKFNWYVDGVEVHNAKTKPREEQYNSTYRVVSVLTVLHQDWLNGKEYKCAVSNKALPAPIEKTISKAKGQPREPQVYTLPPSRDELTKNQVSLTCLVKGFYPSDIAVEWESNGQPENNYKTTPPVLDSDGSFFLYSKLTVDKSRWQQGNVFSCSVMHEALHNHYTQKSLSLSPGSGGGGSGGGGSGGGGSPSEVQLLESGGGLVQPGGSLRLSCAASGFTFSSYAMSWVRQAPGKCLEWVSAISGSGGSTYYADSVKGRFTISRDNSKNTLYLQMNSLRAEDTAVYYCARYYGGYYSAWMDYWGQGTLVTVSSGGGGSGGGGSGGGGSGGGGSDIQMTQSPSSLSASVGDRVTITCRASQSISSFLNWYQQKPGKAPKLLIYAASSLQSGVPSRFSGSGSGTDFTLTISSLQPEDSATYYCQQTYGYLHTFGCGTKLEIKR
notes: Optimized ADAPTIR scFv-Fc-scFv homodimer with stabilizing disulfide in the 1210 scFv; also called 5T4-CD137 bispecific antibody

B3: biotinylated ALG.APV-210 (bispecific antibody)
chain: B2 chain
notes: also called ALG.APV-210 (biotinylated for FACS detection)
EC50 (human 5T4 on cells [2]): 14 nM
